Entries after “also recorded” stand apart in the source; their conditions may differ.
Key:
mice [1] = assay: Neurological score in TAA model of hepatic encephalopathy; assay type: in vivo; conditions: TAA treated mice, Leptin daily for 5 days
Description: Mice were treated with TAA, then 1 mk/kg Leptin was administered daily for 5 days and neurological score was evaluated

mice [2] = assay: Eight-arm maze, mice ad libitum or diet restricted; assay type: in vivo; conditions: 1 mg/kg leptin daily for 5 days
Description: Control mice received food ad-libitum. Diet-restricted mice received a diet of 57 kCal/week/mouse (2.16 g/day/mouse) as 60% of the requirement, or 38 kCal/week/mouse (1.44 g/day/mouse) for 40%/DR. DR was carried out for 10 days. Behavioral test was performed using the eight-arm spatial maze during the second week of experiment. […] Mice were sacrificed by decapitation after the behavioral tests and the hippocampi were frozen at −70° C. The animals were placed in an eight-arm maze, which is a scaled-down version of that developed for rats (Randt et al, (1971) Science 172, 489-499; Ziv et al (1994) Neuroscience Lett, 170, 136-140). […] The mice were tested until they made entries into all eight arms or until they completed 24 entries, whichever came first. […] Maze performance was calculated each day for five consecutive days. Results were presented as area under the curve (AUC) utilizing the formula: (day 2+day 3+day 4+day 5)−4*(day 1).

mice [3] = assay: Eight-arm maze in TAA model of hepatic encephalopathy; assay type: in vivo; conditions: TAA treated mice, 1 mg/kg Leptin daily for 5 days
Description: FIG. 11. […] Mice were treated with TAA, then 1 mg/kg Leptin was administered daily for 5 days. Cognitive function was evaluated in the eight arm maze.
The animals were placed in an eight-arm maze, which is a scaled-down version of that developed for rats (Randt et al, (1971) Science 172, 489-499; Ziv et al (1994) Neuroscience Lett, 170, 136-140). We used water deprivation achieved by limiting water consumption overnight and a reward of 50 μl of water presented at the end of each arm. The mice were tested until they made entries into all eight arms or until they completed 24 entries, whichever came first. […] Maze performance was calculated each day for five consecutive days. Results were presented as area under the curve (AUC) utilizing the formula: (day 2+day 3+day 4+day 5)−4*(day 1).

Bcl-2, Bax, PARP = assay: Hippocampal apoptosis proteins by RT-PCR and immunoblotting; assay type: in vivo, mice; conditions: leptin 1 mg/kg, DR to 40%, immunoblotting
Description: Total hippocampal RNA was extracted using […] reagent according to the manufacturer's instructions and reverse transcribed. Primers specific for OBRlong were […] NO: 1) and […] NO: 6), for […] NO: 2), and […] NO: 7), for BAX […] NO: 3) and […] NO: 8) for Bcl-2 […] NO: 4) and […] NO: 9) and for actin […] NO: 5) and […] NO: 10). […] Total hippocampal Protein was extracted using […] reagent. Aliquots of the clarified lysates containing […] were denatured in Laemmli sample buffer (6% SDS 30%, glycerol, 0.02% bromophenol blue, 200 mM Tris-HCl (pH 6.8), and 250 mM-mercaptoethanol, at 95° C. for 5 min. The samples were resolved by SDS-PAGE (10% acrylamide), and blotted onto nitrocellulose membrane. Non-specific binding in a Western blot analysis was prevented by immersing the membranes in blocking buffer (5% nonfat dry milk in Tris-buffer saline-Tween 20 (TBS-T)), for 2 h at room temperature. The membranes were then exposed to the indicated antibodies diluted 1:1000 for 1 h at room temperature. AMPK, phospho-AMPK and PARP were obtained from Cell Signaling. Bax, bcl-2 and actin were from Santa Cruz Biotechnology Inc. (Santa Cruz, Calif.). The blots were rinsed in TBS-T and then incubated with horseradish peroxidase-conjugated goat anti-mouse antibodies 1:10,000 for 1 h at room temperature. Antibody-antigen complexes were visualized by detecting enhanced chemiluminescence with X-ray film.

Cultured cardiomyocytes = assay: Cardiomyocyte viability after glucose deprivation (WST); assay type: cell-based; conditions: glucose deprivation for 1, 3, 6 h
Description: Cultured cardiomyocytes were exposed to glucose deprivation for 1, 3, 6 h and were treated with Leptin as described above. Cell viability was analyzed by WST.

activated caspase-3 = assay: Activated caspase-3 immunohistochemistry in hippocampal sections; assay type: in vivo, mice; conditions: 40% DR, leptin 1 mg/kg
Description: Mice were perfused intracardially with 4% paraformaldehyde in PBS. Their brains were removed, fixed further in the same solution. […] sections, cut on the same day, were de-waxed and hydrated through graded ethanols, cooked in 25 mM citrate buffer pH 6.0 in a pressure cooker at […] for 3 min (decloaking chamber, Biocare Medical), transferred into boiling deinoized water and left to cool down for 20 min. After 5 min treatment in 3% H2O2, slides were incubated with rabbit polyclonal activated caspase-3 antibody diluted 1:100 in CAS-Block (Zymed) for 3 h at room temperature, washed three times with Optimax (Biogenex), incubated for 30 min with anti rabbit Envision_(DAKO) and developed with DAB for 15 min.
The effects of leptin administration (restoration) on neural function in diet-restricted mice was investigated. Mice were assigned at random to 4 groups. The groups were kept under ad libitum or DR to 40% for 10 days and injected daily with either 1 mg/kg leptin or saline for 5 days during the second week. […] Then the effects on the concentrations of NE and dopamine in the hippocampus were evaluated. […] To elucidate the cellular mechanisms involved in leptin effects, proteins associated with apoptosis were determined by immunoblotting. […] Activated caspase-3 could not be detected in the hippocampi of control animals.

mice [4] = assay: Morris Water Maze in diet-restricted mice; assay type: in vivo; conditions: leptin 1 mg/kg daily; data not shown
Description: The effects of leptin administration (restoration) on neural function in diet-restricted mice was investigated. Mice were assigned at random to 4 groups. The groups were kept under ad libitum or DR to 40% for 10 days and injected daily with either 1 mg/kg leptin or saline for 5 days during the second week. […] Cognitive performance improvement was also observed in the Morris Water Maze (data not shown). Then the effects on the concentrations of NE and dopamine in the hippocampus were evaluated. […] To elucidate the cellular mechanisms involved in leptin effects, proteins associated with apoptosis were determined by immunoblotting. Leptin induced up-regulation of bcl-2 while reducing Bax levels. […] The anti-apoptotic effect of leptin was further confirmed by detection of activated caspase-3 expression as ?of apoptotic cell death. Activated caspase-3 could not be detected in the hippocampi of control animals.

AKT = AKT phosphorylation in glucose-deprived cardiomyocytes; assay type: cell-based; conditions: glucose deprivation for 1, 3, 6 h
Description: Cultured cardiomyocytes exposed to glucose deprivation for 1, 3, 6 h were treated with Leptin. Stat-3 phosphorylation (A) and AKT phosphorylation (measure for cell survival and cardioroprotection) were measured by protein analysis.

B1: leptin: Murine leptin provided by A. Gertler; adipokine hormone, full leptin is a 146 amino acid sequence (protein, UniProt P41160 22-167, looked up)
Leptin: VPIQKVQDDTKTLIKTIVTRINDISHTQSVSAKQRVTGLDFIPGLHPILSLSKMDQTLAVYQQVLTSLPSQNVLQIANDLENLRDLLHLLAFSKSCSLPQTSGLQKPESLDGVLEASLYSTEVVALSRLQGSLQDILQQLDVSPEC
- neurological score (mice [1]): reversed impaired neurological score
- eight-arm maze performance (mice [2]; DR to 40%): reversed the impaired eight-arm maze performance
- eight-arm maze performance (mice [2]; ad libitum control group): not affected
- cognitive function in the eight arm maze (mice [3]): reversed impaired cognitive function
- Bax levels (Bcl-2, Bax, PARP): reducing
- PARP cleavage (Bcl-2, Bax, PARP): reduction in the cleaved subunit
- bcl-2 level (Bcl-2, Bax, PARP): up-regulation
- cell viability (WST) (Cultured cardiomyocytes): increased significantly the viability; also recorded: induces survival
- activated caspase-3 immunoreactivity (activated caspase-3): significantly reduced the immunoreactivity
- cognitive performance in the Morris Water Maze (mice [4]): improvement
- cell survival as measured by AKT phosphorylation (AKT): improved the cell survival

Reference: patent US9333240B2, “Compounds for improving nutritional status, cognition and survival” (YISSUM RESEARCH DEVELOPMENT COMPANY OF THE HEBREW …, priority 2005, dated 2016)
